Test results taken from patent publication US20160272683A1 (Novo Nordisk, published 2016).
Numbered stars: 1 amine (or outer) side, 2 acyl side, 3 side chain; on linkers, the order of the positions; unused ones are H or OH. * marks the point of attachment. C20 diacid = O=C(O)CCCCCCCCCCCCCCCCCCC(=O)*; C18 diacid = O=C(O)CCCCCCCCCCCCCCCCC(=O)*; γGlu = O=C(O)[C@H](CCC(=O)[*:2])N[*:1]; C14 diacid = O=C(O)CCCCCCCCCCCCC(=O)*; AEEA = NCCOCCOCC(=O)O

T1: human amylin receptor (human calcitonin receptor + human RAMP3) (human) (UniProt P30988)
T1 sequence (looked up) 1: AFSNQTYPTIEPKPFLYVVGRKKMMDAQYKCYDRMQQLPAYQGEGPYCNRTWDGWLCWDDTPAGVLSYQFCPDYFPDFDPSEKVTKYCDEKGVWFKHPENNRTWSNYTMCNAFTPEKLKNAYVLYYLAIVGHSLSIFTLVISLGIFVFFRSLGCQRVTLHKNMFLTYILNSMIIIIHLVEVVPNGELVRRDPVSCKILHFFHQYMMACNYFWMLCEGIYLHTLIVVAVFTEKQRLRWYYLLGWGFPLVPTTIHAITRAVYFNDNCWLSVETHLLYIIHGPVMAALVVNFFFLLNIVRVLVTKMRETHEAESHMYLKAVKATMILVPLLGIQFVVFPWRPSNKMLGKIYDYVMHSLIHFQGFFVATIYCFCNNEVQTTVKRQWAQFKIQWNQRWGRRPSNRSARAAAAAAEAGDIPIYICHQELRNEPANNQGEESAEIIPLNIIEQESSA
T1 sequence (looked up) 2: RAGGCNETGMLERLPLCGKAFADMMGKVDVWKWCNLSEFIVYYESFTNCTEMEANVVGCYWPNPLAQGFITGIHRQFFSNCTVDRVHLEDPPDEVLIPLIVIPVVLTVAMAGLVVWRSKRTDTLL

T2: human calcitonin receptor on BHK570/CRE-luc cells (human, UniProt P30988 25-474)
T2 sequence (looked up): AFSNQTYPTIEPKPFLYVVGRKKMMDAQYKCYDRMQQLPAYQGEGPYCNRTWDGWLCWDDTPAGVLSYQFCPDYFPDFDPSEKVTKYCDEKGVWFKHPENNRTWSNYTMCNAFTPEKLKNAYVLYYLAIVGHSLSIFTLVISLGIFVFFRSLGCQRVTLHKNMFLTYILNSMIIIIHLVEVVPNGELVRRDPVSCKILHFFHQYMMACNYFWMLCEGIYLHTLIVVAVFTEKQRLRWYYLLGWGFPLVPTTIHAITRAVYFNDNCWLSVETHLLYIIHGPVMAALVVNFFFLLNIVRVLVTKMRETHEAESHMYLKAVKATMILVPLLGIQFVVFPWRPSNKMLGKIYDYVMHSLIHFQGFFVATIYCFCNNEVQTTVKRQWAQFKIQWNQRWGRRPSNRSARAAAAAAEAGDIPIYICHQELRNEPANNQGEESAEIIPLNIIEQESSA

T3: human amylin 3(a) receptor (human calcitonin receptor co-expressed with RAMP-3) on BHK570/CRE-luc cells (human, UniProt P30988 25-474; O60896 24-148)
T3 sequence (looked up) 1: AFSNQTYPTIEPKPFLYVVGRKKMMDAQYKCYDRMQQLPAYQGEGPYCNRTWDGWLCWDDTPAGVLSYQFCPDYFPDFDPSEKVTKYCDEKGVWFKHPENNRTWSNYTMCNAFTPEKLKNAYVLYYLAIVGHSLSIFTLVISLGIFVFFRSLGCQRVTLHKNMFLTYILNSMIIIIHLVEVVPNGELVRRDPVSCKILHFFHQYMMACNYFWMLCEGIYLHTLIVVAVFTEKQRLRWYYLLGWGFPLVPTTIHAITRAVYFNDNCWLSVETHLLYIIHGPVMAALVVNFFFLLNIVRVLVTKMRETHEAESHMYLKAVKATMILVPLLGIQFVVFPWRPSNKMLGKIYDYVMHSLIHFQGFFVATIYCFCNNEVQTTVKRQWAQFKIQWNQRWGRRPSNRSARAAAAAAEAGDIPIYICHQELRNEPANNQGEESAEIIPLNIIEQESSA
T3 sequence (looked up) 2: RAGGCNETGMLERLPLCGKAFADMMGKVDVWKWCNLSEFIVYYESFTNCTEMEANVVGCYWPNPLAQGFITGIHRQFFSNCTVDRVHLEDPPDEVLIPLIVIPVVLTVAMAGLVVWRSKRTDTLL


Experiments:
[1] = target: T1, human amylin receptor (human calcitonin receptor + human RAMP3) (human); assay: whole-cell competition vs 125I-rat amylin (Assay Va)
[2] = target: T2, human calcitonin receptor on …; assay: cell-based or functional assay
[3] = target: T3, human amylin 3(a) receptor (human …); assay: cell-based or functional assay

| IC50 [1] [nM] | hCTR funct. EC50 (pM), tested with HSA [2] [pM] | hAmylin-R funct. EC50 (pM), tested with HSA [3] [pM] | Binder |
| --- | --- | --- | --- |
| 1.19 | – | – | {C14 diacid}-EASELSTAALGRLSAELHELATLPRTETGPESP-NH2 [[N-terminal(C14 diacid)]mimylin] |
| – | 99 | 185 | {C20 diacid-γGlu}-ASGLSTAVLGRLSQELHELQTLQTYPRTETGSQTY-NH2 (SMILES CC(C)C[C@H](NC(=O)CNC(=O)[C@H](CO)NC(=O)[C@H](C)NC(=O)CC[C@H](NC(=O)CCCCCCCCCCCCCCCCCCC(=O)O)C(=O)O)C(=O)N[C@@H](CO)C(=O)N[C@H](C(=O)N[C@@H](C)C(=O)N[C@H](C(=O)N[C@@H](CC(C)C)C(=O)NCC(=O)N[C@@H](CCCNC(=N)N)C(=O)N[C@@H](CC(C)C)C(=O)N[C@@H](CO)C(=O)N[C@@H](CCC(N)=O)C(=O)N[C@@H](CCC(=O)O)C(=O)N[C@@H](CC(C)C)C(=O)N[C@@H](Cc1c[nH]cn1)C(=O)N[C@@H](CCC(=O)O)C(=O)N[C@@H](CC(C)C)C(=O)N[C@@H](CCC(N)=O)C(=O)N[C@H](C(=O)N[C@@H](CC(C)C)C(=O)N[C@@H](CCC(N)=O)C(=O)N[C@H](C(=O)N[C@@H](Cc1ccc(O)cc1)C(=O)N1CCC[C@H]1C(=O)N[C@@H](CCCNC(=N)N)C(=O)N[C@H](C(=O)N[C@@H](CCC(=O)O)C(=O)N[C@H](C(=O)NCC(=O)N[C@@H](CO)C(=O)N[C@@H](CCC(N)=O)C(=O)N[C@H](C(=O)N[C@@H](Cc1ccc(O)cc1)C(N)=O)[C@@H](C)O)[C@@H](C)O)[C@@H](C)O)[C@@H](C)O)[C@@H](C)O)C(C)C)[C@@H](C)O) [[N-terminal(C20 diacid-gGlu), des1, 4G, 9V, 15Q, 21Q, 23aQ, 23bT, 23cY, 30S, 31Q, 32T, 33Y]mimylin] |
| 8.38 | – | – | {C14 diacid-γGlu-γGlu-AEEA-AEEA-AEEA-AEEA}-EASELSTAALGRLSAELHELATLPRTETGPESP-NH2 [[N-terminal(C14 diacid-2xgGlu-4xOEG)]mimylin] |
| – | 852 | 565 | {C20 diacid-γGlu}-ELSGLSTLVLGRLSQELHELQTYPRTGTGSGTY-NH2 (SMILES CC(C)C[C@H](NC(=O)CNC(=O)[C@H](CO)NC(=O)[C@H](CC(C)C)NC(=O)[C@H](CCC(=O)O)NC(=O)CC[C@H](NC(=O)CCCCCCCCCCCCCCCCCCC(=O)O)C(=O)O)C(=O)N[C@@H](CO)C(=O)N[C@H](C(=O)N[C@@H](CC(C)C)C(=O)N[C@H](C(=O)N[C@@H](CC(C)C)C(=O)NCC(=O)N[C@@H](CCCNC(=N)N)C(=O)N[C@@H](CC(C)C)C(=O)N[C@@H](CO)C(=O)N[C@@H](CCC(N)=O)C(=O)N[C@@H](CCC(=O)O)C(=O)N[C@@H](CC(C)C)C(=O)N[C@@H](Cc1c[nH]cn1)C(=O)N[C@@H](CCC(=O)O)C(=O)N[C@@H](CC(C)C)C(=O)N[C@@H](CCC(N)=O)C(=O)N[C@H](C(=O)N[C@@H](Cc1ccc(O)cc1)C(=O)N1CCC[C@H]1C(=O)N[C@@H](CCCNC(=N)N)C(=O)N[C@H](C(=O)NCC(=O)N[C@H](C(=O)NCC(=O)N[C@@H](CO)C(=O)NCC(=O)N[C@H](C(=O)N[C@@H](Cc1ccc(O)cc1)C(N)=O)[C@@H](C)O)[C@@H](C)O)[C@@H](C)O)[C@@H](C)O)C(C)C)[C@@H](C)O) [[N-terminal(C20 diacid-gGlu), 2L, 4G, 8L, 9V, 15Q, 21Q, 23Y, 27G, 30S, 31G, 32T, 33Y]mimylin] |
| – | 50 | 44 | {C20 diacid-γGlu}-LSQLSTLVLGRLSQRLHRLQTYPRTQTGSQTY-NH2 (SMILES CC(C)C[C@H](NC(=O)CC[C@H](NC(=O)CCCCCCCCCCCCCCCCCCC(=O)O)C(=O)O)C(=O)N[C@@H](CO)C(=O)N[C@@H](CCC(N)=O)C(=O)N[C@@H](CC(C)C)C(=O)N[C@@H](CO)C(=O)N[C@H](C(=O)N[C@@H](CC(C)C)C(=O)N[C@H](C(=O)N[C@@H](CC(C)C)C(=O)NCC(=O)N[C@@H](CCCNC(=N)N)C(=O)N[C@@H](CC(C)C)C(=O)N[C@@H](CO)C(=O)N[C@@H](CCC(N)=O)C(=O)N[C@@H](CCCNC(=N)N)C(=O)N[C@@H](CC(C)C)C(=O)N[C@@H](Cc1c[nH]cn1)C(=O)N[C@@H](CCCNC(=N)N)C(=O)N[C@@H](CC(C)C)C(=O)N[C@@H](CCC(N)=O)C(=O)N[C@H](C(=O)N[C@@H](Cc1ccc(O)cc1)C(=O)N1CCC[C@H]1C(=O)N[C@@H](CCCNC(=N)N)C(=O)N[C@H](C(=O)N[C@@H](CCC(N)=O)C(=O)N[C@H](C(=O)NCC(=O)N[C@@H](CO)C(=O)N[C@@H](CCC(N)=O)C(=O)N[C@H](C(=O)N[C@@H](Cc1ccc(O)cc1)C(N)=O)[C@@H](C)O)[C@@H](C)O)[C@@H](C)O)[C@@H](C)O)C(C)C)[C@@H](C)O) |
| 0.902 | – | – | {C18 diacid}-EASELSTAALGRLSAELHELATLPRTETGPESP-NH2 (SMILES CC(C)C[C@H](NC(=O)[C@H](C)NC(=O)[C@H](C)NC(=O)[C@@H](NC(=O)[C@H](CO)NC(=O)[C@H](CC(C)C)NC(=O)[C@H](CCC(=O)O)NC(=O)[C@H](CO)NC(=O)[C@H](C)NC(=O)[C@H](CCC(=O)O)NC(=O)CCCCCCCCCCCCCCCCC(=O)O)[C@@H](C)O)C(=O)NCC(=O)N[C@@H](CCCNC(=N)N)C(=O)N[C@@H](CC(C)C)C(=O)N[C@@H](CO)C(=O)N[C@@H](C)C(=O)N[C@@H](CCC(=O)O)C(=O)N[C@@H](CC(C)C)C(=O)N[C@@H](Cc1c[nH]cn1)C(=O)N[C@@H](CCC(=O)O)C(=O)N[C@@H](CC(C)C)C(=O)N[C@@H](C)C(=O)N[C@H](C(=O)N[C@@H](CC(C)C)C(=O)N1CCC[C@H]1C(=O)N[C@@H](CCCNC(=N)N)C(=O)N[C@H](C(=O)N[C@@H](CCC(=O)O)C(=O)N[C@H](C(=O)NCC(=O)N1CCC[C@H]1C(=O)N[C@@H](CCC(=O)O)C(=O)N[C@@H](CO)C(=O)N1CCC[C@H]1C(N)=O)[C@@H](C)O)[C@@H](C)O)[C@@H](C)O) [[N-terminal(C18 diacid)]mimylin] |
